From paper PMC5061333 come the findings set out here.

In this series the target is ASC (UniProt Q9ULZ3). Nature of the series: EMSA. The note with it: EMSA: 100 mM Tris, 500 mM NaCl, 10 mM DTT, pH 7, 15°C 30 min; 3-5 μg DNA, 0.2-0.65 μg recombinant protein or 5 μg nuclear extract; 6% native PAGE.
Chain of ASC (Q9ULZ3 whole entry): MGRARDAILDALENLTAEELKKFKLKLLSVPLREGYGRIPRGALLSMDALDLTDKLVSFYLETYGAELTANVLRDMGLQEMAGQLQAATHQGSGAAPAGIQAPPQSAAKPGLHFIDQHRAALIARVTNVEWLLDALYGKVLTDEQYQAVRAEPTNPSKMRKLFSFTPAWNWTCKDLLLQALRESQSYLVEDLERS

Consider “ATTTATATAGCTTCTCAGCCTCGAATGTGGAAATAGGTGACTCATTTGAGTGTTTTCTTTCTTTTTAGAGTCTACAGAACTTTGAAAGTATGTGTTATTTTTCATTAACTAAAACGAGGAAGTATTACATCGTTATTGGCAGGAAGCACACAATGTATTTGTCTTTCAAAGGATTTTTTTTTCTGTCTGCTGCATAAATTGACTCCATGAGAAACCTCATTTTTTTGCCAAAGTCAAATGACTGCTCTCATAGGTATCA (double strand) [MMP7 promoter P1]”, for which the binding entry is recorded as “binds”.
